Results reported in patent US20240400670A1 (JIANGSU HENGRUI PHARMACEUTICALS, published 2024).
One block for each binder: values may come before it.

Assays:
[1] = target: T1, mouse IL-23 (R&D Systems, 1887-ML/CF) (mouse, UniProt Q9EQ14 22-196; P43432 23-335); experiment: SPR (Biacore), Protein A capture of sample
T1 construct: also called Mouse IL-23 p19
T1 sequence (looked up) 1: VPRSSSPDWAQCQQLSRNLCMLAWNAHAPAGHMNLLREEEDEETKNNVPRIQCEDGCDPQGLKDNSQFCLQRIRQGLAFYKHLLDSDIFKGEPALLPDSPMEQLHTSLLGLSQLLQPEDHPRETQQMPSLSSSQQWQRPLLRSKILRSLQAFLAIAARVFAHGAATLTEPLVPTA
T1 sequence (looked up) 2: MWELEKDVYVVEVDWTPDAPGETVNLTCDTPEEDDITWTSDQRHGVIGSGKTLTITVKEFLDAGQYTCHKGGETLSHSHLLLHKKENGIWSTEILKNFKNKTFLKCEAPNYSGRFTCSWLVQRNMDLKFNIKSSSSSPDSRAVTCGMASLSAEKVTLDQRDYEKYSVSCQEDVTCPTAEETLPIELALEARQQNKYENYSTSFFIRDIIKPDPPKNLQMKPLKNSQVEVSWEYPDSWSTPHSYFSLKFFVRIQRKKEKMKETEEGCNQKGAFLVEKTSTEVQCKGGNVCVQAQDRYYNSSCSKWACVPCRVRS

[2] = target: T2, human IL-23 (Sino Biological, CT048-H08H) (human, UniProt Q9NPF7 20-189; P29460 23-328); experiment: ELISA, sample coated, IL-23 titrated, anti-His-HRP
T2 construct: also called human IL-23 protein; Human IL-23 p19
T2 sequence (looked up) 1: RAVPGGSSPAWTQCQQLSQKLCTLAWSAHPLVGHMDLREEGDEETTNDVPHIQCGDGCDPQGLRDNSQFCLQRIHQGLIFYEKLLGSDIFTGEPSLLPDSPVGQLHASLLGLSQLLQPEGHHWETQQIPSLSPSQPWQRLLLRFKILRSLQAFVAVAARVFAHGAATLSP
T2 sequence (looked up) 2: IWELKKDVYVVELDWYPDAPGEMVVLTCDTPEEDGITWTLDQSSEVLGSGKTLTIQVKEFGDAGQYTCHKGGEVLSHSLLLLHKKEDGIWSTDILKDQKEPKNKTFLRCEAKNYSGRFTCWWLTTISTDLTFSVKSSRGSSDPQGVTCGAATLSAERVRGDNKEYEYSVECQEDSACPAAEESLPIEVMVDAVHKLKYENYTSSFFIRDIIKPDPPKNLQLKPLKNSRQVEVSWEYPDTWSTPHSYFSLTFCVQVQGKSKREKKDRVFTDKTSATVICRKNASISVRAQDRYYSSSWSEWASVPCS
Procedure: (§1) The specific procedures are as follows:
(§2) The test sample was diluted to 2 μg/mL with a PBS (BasalMedia, B320) buffer at pH 7.4 and added to a 96-well microplate (Coming, 3590) at 100 μL/well. The plate was incubated at 4° C. overnight. After the liquid was discarded, 5 % skim milk (BD, 232100) diluted with PBS was added at 300 μL/well for blocking, and the mixture was incubated at 37° C. for 2 h. After the blocking was completed, the blocking solution was discarded, and the plate was washed 3 times with a PBST buffer (pH 7.4, PBS containing 0.1 % tween-20). […] After the incubation, the plate was washed 3 times with PBST. […] After the plate was washed 3 times with PBST, a TMB chromogenic substrate (KPL, 5120-0077) was added at 100 μL/well, and the mixture was incubated at room temperature for 10⁻¹⁵ min, and then 1 M H₂SO₄ was added at 50 μL/well to terminate the reaction. The absorbance values at 450 nm were taken using a microplate reader. The binding curves of antibodies to antigens were fitted using software, and the EC₅₀ values were calculated.

[3] = target: T2, human IL-23 (Sino Biological, …); experiment: cell-based or functional assay
[4] = target: T2, human IL-23 (Sino Biological, …); experiment: SPR (Biacore), Protein A capture of sample, 1:1 model
Procedure: (§3) A certain amount of test sample was subjected to affinity capture by a biosensor chip Protein A (GE, 29127556), and then antigens at a series of concentration gradients were allowed to flow on the surface of the chip. The reaction signals were detected in real time by using Biacore (GE, 8 K) to obtain association and dissociation curves. After the dissociation was completed for each cycle, the biochip was washed and regenerated with a 10 mM glycine-hydrochloric acid solution at pH 1.5 (GE, BR-1003-54). Fitting was performed based on the experimental data using BlAevaluation version 4.1 software with a 1:1 model, and affinity values were obtained.

[5] = target: cynomolgus monkey IL-23 (Acro Biosystems, ILB-CM52W8) (cynomolgus monkey, UniProt H6WS56 20-189); experiment: as above
Procedure: as §3

[6] = target: T2, human IL-23 (Sino Biological, …); experiment: competition ELISA, blocks IL-23/IL-23R; IL-23R coated, biotin-IL-23 + sample gradient
Procedure: as §1
(§4) The receptor protein was diluted to 2 μg/mL with a PBS (BasalMedia, B320) buffer at pH 7.4 and added to a 96-well microplate (Corning, 3590) at 100 μL/well. The plate was incubated at 4° C. overnight. After the liquid was discarded, 1 % Casein blocking solution (Thermo, 37528) was added at 200 μL/well for blocking, and the plate was incubated at 37° C. for 2 h. After the blocking was complete, the blocking solution was discarded, and the plate was washed 3 times with a PBST buffer (pH 7.4 PBS containing 0.1 % tween-20) for later use. After the biotin-labeled ligand protein at a fixed concentration was mixed with an antibody or fusion protein diluted in a gradient, the mixture was pre-incubated at 37° C. for 30 min and then added to the blocked microplate. The plate was incubated at 37° C. for 1.5 h. After the incubation was complete, the plate was washed 3 times with PBST. Streptavidin-HRP (Invitrogen, 434323, diluted at 1:4000) was added at 100 μL/well, and the plate was incubated at 37° C. for 1 h. The supernatant was removed. After the plate was washed 3 times with PBST, TMB chromogenic substrate (KPL, 5120-0077) was added at 100 μL/well, and the plate was incubated at room temperature for 10⁻¹⁵ min. 1 M H₂SO₄ was added at 50 μL/well to terminate the reaction. The absorbance values at 450 nm were taken using a microplate reader. Curves for the inhibition of binding of the ligands to the receptors were fitted using software, and the IC₅₀ values were calculated.

[7] = target: T3, IL-23 (R&D Systems, 1290-IL-010) (UniProt Q9NPF7 20-189; P29460 23-328); experiment: cell-based or functional assay
T3 sequence (looked up) 1: T2 sequence (looked up) 1
T3 sequence (looked up) 2: T2 sequence (looked up) 2

[8] = target: T4, human APRIL (R&D Systems, 5860-AP-010/CF) (human, UniProt O75888 105-250, limits assumed); experiment: competition ELISA, blocks APRIL/BCMA; BCMA coated, biotin-APRIL
T4 construct: the B cell assay names 'R&D Systems, 5860-AP'; also called APRIL protein
T4 sequence (looked up): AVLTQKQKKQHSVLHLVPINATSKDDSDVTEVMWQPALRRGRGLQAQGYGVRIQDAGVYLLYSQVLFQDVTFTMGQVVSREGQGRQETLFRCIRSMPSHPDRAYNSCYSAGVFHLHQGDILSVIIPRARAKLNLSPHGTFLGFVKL
Procedure: as §1
as §4, with “After the plate was washed 3 times with PBST, TMB chromogenic substrate (KPL, 5120-0077) was added at 100 μL/well, and the plate was incubated at room temperature for 10⁻¹⁵ min. 1 M H₂SO₄ was added at 50 μL/well to terminate the reaction.” left out

[9] = target: T5, human BAFF (Sino Biological, 10056-HNCH) (human, UniProt Q9Y275 134-285); experiment: competition ELISA, blocks BAFF/BCMA; BCMA coated, biotin-BAFF
T5 construct: also called BAFF protein
Procedure: as §1
as §4, with “After the plate was washed 3 times with PBST, TMB chromogenic substrate (KPL, 5120-0077) was added at 100 μL/well, and the plate was incubated at room temperature for 10⁻¹⁵ min. 1 M H₂SO₄ was added at 50 μL/well to terminate the reaction.” left out

[10] = target: T6, human BAFF (ACROBiosystems, BAF-H52D4) (human, UniProt Q9Y275 134-285); experiment: ELISA, sample coated, BAFF titrated, anti-His-HRP
T6 construct: detected with anti-His-HRP
Procedure: as §1, §2

[11] = target: T4, human APRIL (R&D Systems, …); experiment: competition ELISA, blocks APRIL/TACI; TACI coated, biotin-APRIL
Procedure: as §1
as §4, with “After the plate was washed 3 times with PBST, TMB chromogenic substrate (KPL, 5120-0077) was added at 100 μL/well, and the plate was incubated at room temperature for 10⁻¹⁵ min. 1 M H₂SO₄ was added at 50 μL/well to terminate the reaction.” left out

[12] = target: T4, human APRIL (R&D Systems, …); experiment: SPR (Biacore), Protein A capture of sample, 1:1 model
Procedure: as §3

[13] = target: T5, human BAFF (Sino Biological, 10056-HNCH); experiment: as above
Procedure: as §3

[14] = target: cynomolgus monkey BAFF (Kactus, BAF-CM412) (cynomolgus monkey, UniProt A0A2K5V2X4 134-285); experiment: as above
Procedure: as §3

[15] = target: mouse BAFF (Acro Biosystems, BAF-M521y) (mouse, UniProt Q9WU72 127-309, limits assumed); experiment: as above
Procedure: as §3

[16] = target: T4, human APRIL (R&D Systems, …); experiment: cell-based or functional assay
[17] = target: BAFF (R&D Systems, 7537-BF); experiment: cell-based or functional assay
[18] = target: T5, human BAFF (Sino Biological, 10056-HNCH); experiment: competition ELISA, blocks BAFF/TACI; TACI coated, biotin-BAFF
Procedure: as §1
as §4, with “After the plate was washed 3 times with PBST, TMB chromogenic substrate (KPL, 5120-0077) was added at 100 μL/well, and the plate was incubated at room temperature for 10⁻¹⁵ min. 1 M H₂SO₄ was added at 50 μL/well to terminate the reaction.” left out

[19] = target: T5, human BAFF (Sino Biological, 10056-HNCH); experiment: competition ELISA, blocks BAFF/BAFF-R; BAFF-R coated, biotin-BAFF
Procedure: as §1
as §4, with “After the plate was washed 3 times with PBST, TMB chromogenic substrate (KPL, 5120-0077) was added at 100 μL/well, and the plate was incubated at room temperature for 10⁻¹⁵ min. 1 M H₂SO₄ was added at 50 μL/well to terminate the reaction.” left out

- binding result [1]: no binding
- EC50 [2]: 1110 pM
- Activity in inhibiting proliferation of BaF3-IL-23R cells (IC50, nM) [3]: 0.194 nM
- Kd [4]: 15.1 pM
- koff [4]: 4.08e-05 s⁻¹
- kon [4]: 2.71e+06 M⁻¹ s⁻¹
- Kd [5]: 70.8 pM
- koff [5]: 0.000192 s⁻¹
- kon [5]: 2.71e+06 M⁻¹ s⁻¹
- IC50 [6]: 478 pM
- IC50 for inhibiting IL-17 secretion [7]: 17.8 pM
B1: Hu29-19 (antibody, human IgG1, kappa, L234A L235A, V domains shown)
VH: QVTLKESGPVLVKPTETLTLTCTVSGFSLTNYAISWVRQPPGKGLEWLGVIWTGGGTNYNSGIKSRLTISKDNSKSQVVLTMTNMDPVDTARYYCVREGDYGSYAGAMDYWGQGTTVTVSS
VL: DIVLTQSPDSLAVSLGERATINCRASESVDYYGISSMHWFQQKPGQPPKLLIYRASNLESGIPARFSGSGSRTDFTLTISSLQAEDVAVYYCQQANKDPYTFGGGTKVEIKR
notes: humanized mAb29, IgG1/kappa

- binding result [1]: no binding
- EC50 [2]: 1220 pM
- Activity in inhibiting proliferation of BaF3-IL-23R cells (IC50, nM) [3]: 0.178 nM
- Kd [4]: 14.9 pM
- Kd [5]: 85.7 pM
- IC50 [6]: 488 pM
- IC50 for inhibiting IL-17 secretion [7]: 28.9 pM
B2: Hu29-24 (antibody, human IgG1, kappa, L234A L235A)
heavy: not shown
light: DIVLTQSPDSLAVSLGQRATINCRASESVDYYGISSMHWFQQKPGQPPKLLIYRASNLESGIPARFSGSGSRTDFTLTISSLQAEDVAVYYCQQANKDPYTFGGGTKVEIKRTVAAPSVFIFPPSDEQLKSGTASVVCLLNNFYPREAKVQWKVDNALQSGNSQESVTEQDSKDSTYSLSSTLTLSKADYEKHKVYACEVTHQGLSSPVTKSFNRGEC
notes: humanized mAb29, IgG1/kappa

- IC50 [8]: 484000 pM
- IC50 [9]: 4860 pM
- EC50 [10]: 21500 pM
- IC50 [11]: 64900 pM
- Kd [12]: 43.9 pM
- koff [12]: 0.00753 s⁻¹
- kon [12]: 1.72e+08 M⁻¹ s⁻¹
- Kd [13]: 186 pM
- koff [13]: 0.00018 s⁻¹
- kon [13]: 964000 M⁻¹ s⁻¹
- Kd [14]: 258 pM
- koff [14]: 9.54e-05 s⁻¹
- kon [14]: 370000 M⁻¹ s⁻¹
- Kd [15]: 121 pM
- koff [15]: 8.98e-05 s⁻¹
- kon [15]: 740000 M⁻¹ s⁻¹
- Activity in inhibiting proliferation of B cells (IC50, pM), APRIL [16]: 1990 pM
- Activity in inhibiting proliferation of B cells (IC50, pM), BAFF [17]: 70.1 pM
- IC50 [18]: 6070 pM
- IC50 [19]: 7570 pM
B3: RCT-18 (Fc fusion)
chain: SRVDQEERFPQGLWTGVAMRSCPEEQYWDPLLGTCMSCKTICNHQSQRTCAAFCRSLSCRKEQGKFYDHLLRDCISCASICGQHPKQCAYFCENKLRSPVNLPPELDKTHTCPPCPAPEAEGAPSVFLFPPKPKDTLMISRTPEVTCVVVDVSHEDPEVKFNWYVDGVEVHNAKTKPREEQYNSTYRVVSVLTVLHQDWLNGKEYKCKVSNKALPSSIEKTISKAKGQPREPQVYTLPPSRDELTKNQVSLTCLVKGFYPSDIAVEWESNGQPENNYKTTPPVLDSDGSFFLYSKLTVDKSRWQQGNVFSCSVMHEALHNHYTQKSLSLSPGK
notes: control TACI-Fc; also called telitacicept; RC18
